Reference: paper PMC5873253

Target: OsMADS57 (Oryza sativa) (UniProt Q6Z6W2)
Test: SPR
Details: SPR (Biacore 3000, SA chip): 10 mM Hepes pH 7.9, 50 mM KCl, 1 mM EDTA, 0.5 mM DTT, 5 mM MgCl2, 10% glycerol, 0.005% P20, 25 or 4 C, protein 0.15-4.80 uM, EMSA: …

Chain of OsMADS57 (Oryza sativa) (Q6Z6W2 whole entry): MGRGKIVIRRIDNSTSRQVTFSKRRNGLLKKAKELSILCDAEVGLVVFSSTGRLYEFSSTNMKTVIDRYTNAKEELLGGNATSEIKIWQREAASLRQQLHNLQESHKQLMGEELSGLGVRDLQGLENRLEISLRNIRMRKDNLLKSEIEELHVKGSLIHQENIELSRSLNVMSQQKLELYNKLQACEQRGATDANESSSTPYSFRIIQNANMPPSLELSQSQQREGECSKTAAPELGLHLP

TTAACTTTAAAAAGTTAGTTAACTTTAAAAAGTTAGTTAACTTTAAAAAGTTAG (double strand) [WRKY94S2]
Kd (25 C): 1.2 µM
Kd: 0.7 µM
